Experiments:
Format in all cases: in vitro ADME, hairless mice
[1] = Skin permeation with calcein sodium coating and dissolving solution in combination
Method: A transdermal drug administration apparatus having microneedles of FIG. 9 was used. 70 mg of calcein sodium as a drug was mixed with 930 μL of a 5% aqueous polymer (polyvinyl pyrrolidone, dextran) solution. The whole surface of microneedles was coated with 25 μL of the solution. The applied solution was dried at room temperature for 12 hours. Moreover, no polymer was added to a coating agent containing only water.
(§1) To measure the amount of permeation, the skin was ablated from the trunks of hairless mice and attached to vertical acrylic cells (2.54 cm^2) with the dermis facing a receptor layer. The cells were loaded in a thermostat set to 37° C. The transdermal drug administration apparatus having microneedles of the present invention was affixed to the stratum corneum. Sampling was conducted at a speed of 5.5 mL/hr. after 1 hour and 2 hours and subsequently at 2-hour intervals until the 6th hour. A phosphate-buffered saline (PBS) was used in the receptor layer. A drug content in the receptor solution obtained each time was measured with a fluorophotometer (excitation: 485, fluorescence: 538).
(§2) Animal type: hairless mice (n=3)
(§3) Receptor solution: 4 mL of PBS (Sampling volume: 200 μL/time)
(§4) Area: 2.54 cm^2 (however, the M.N substrate itself is 1 cm^2)
(§5) Dissolving solution: a saline was added dropwise from a dissolving solution reservoir.

[2] = Skin permeation with drug-coated microneedles and dissolving solution in combination (vertical acrylic cells); conditions: FIG. 12
Method: A transdermal drug administration apparatus having microneedles of FIG. 9 was used. 30% aqueous solution was prepared with 100 mg of BSA (bovine serum albumin) and […] of FITC-BSA (fluorescently labeled bovine serum albumin) as drugs and 350 μL of water and used as a mother liquid to prepare 10% and 20% aqueous solutions. The whole surface of microneedles was coated with each of the prepared 10 to 30% aqueous solutions in an amount of 30 μL/patch. The applied solution was dried at room temperature for 12 hours to prepare 3 kinds in total of coated microneedles (→3 mg/patch, 6 mg/patch, and 9 mg/patch) (FIG. 12).
The drug injection models used as controls are shown (FIG. 13), 15 μL of a 20% aqueous drug (FITC-BSA) solution was added to a dissolving solution without coating microneedles with the drug, and after coating with a 5% aqueous PVA203 solution in an amount of 30 μL/patch, the drug was added.
as §1, with “8th” for “6th”
as §2, §3, §4, §5
PVA203: polyvinyl alcohol (partially saponified, polymerization degree: 300, KURARAY CO., LTD.)

[3] = Skin permeation with drug coating-water-soluble polymer and dissolving solution in combination; conditions: FIG. 14; for skin permeability: 20 μL dissolving solution in combination
Method: A transdermal drug administration apparatus having microneedles of FIG. 9 was used. 400 mg of BSA (bovine serum albumin) and 400 mg of FITC-BSA (fluorescently labeled bovine serum albumin) as drugs were dissolved in 5 mL of water. Likewise, 800 mg of a polymer (PEO, PVA117) was dissolved in 5 mL of water. Both of the solutions were mixed in equal amounts to prepare a coating solution. The whole surface of microneedles was coated with 25 μL of the coating solution. The applied solution was dried with a drier for 30 minutes. Moreover, no polymer was added to a coating agent containing only water.
as §1, with “8th” for “6th”, “496,” for “485,”, “517).” for “538).”
as §2
Receptor solution: 4 mL of PBS (Sampling volume: 500 μL/time)
as §4, §5
PEO: polyethylene oxide (molecular weight: 900,000, concentration: 2.5%)
PVA117S: polyvinyl alcohol (completely saponified, KURARAY CO., LTD.)

permeability-promoting effects by dropwise addition of the dissolving solution ([1]; dextran used in the coating)	permeability-promoting effects by dropwise addition of the dissolving solution ([1]; polyvinyl pyrrolidone used in the coating)	Molecule	permeability-promoting effects by dropwise addition of the dissolving solution ([1]; regardless of the presence or absence of the polymer in the coating, FIGS. 15-17)	effect of using the dissolving solution in combination ([2]; amount of drug coating 3 mg (of 3, 6 and 9 mg), dissolving solution fixed to 20 μL)	synergistic effect brought about by the dissolving solution ([2]; amount of drug coating 9 mg, dissolving solution fixed to 20 μL)	skin permeability ([2]; drug-coated microneedles, 20 μL dissolving solution (saline) used in combination)	skin permeability ([3]; only water, no polymer in coating composition)	skin permeability ([3]; polyethylene oxide (molecular weight 900,000) mixed into coating composition)	skin permeability-promoting effects brought about by the addition of the dissolving solution ([3]; poorly soluble polymer PVA117 mixed into coating composition)
promoting effects were also observed	promoting effects were also observed	O=C(O)CN(CC(=O)O)Cc1cc2c(cc1O)Oc1cc(O)c(CN(CC(=O)O)CC(=O)O)cc1C21OC(=O)c2ccccc21 [calcein sodium]	Permeability-promoting effects were observed	–	–	–	–	–	–
–	–	FITC-BSA: fluorescently labeled bovine serum albumin, used as model drug in the microneedle coating (mixed with BSA)	–	highest	no synergistic effect	increased	increased	increased	no skin permeability-promoting effects
